Publication PMC10068764

Molecular target: CA tri-hexamer_(center) (HIV-1)
Assay: ITC

## NUP153^1411–1475/1425–1464△ peptide (25 aa) (from UniProt P49790 1411-1475)
  Kd: 870 nM
